The values below come from US20250163410.

In the data set the test system is VchCAST TnsB transposase (Tn6677; assayed with TnsA-TnsC and TniQ-Cascade) (Vibrio cholerae). Briefly: cell_activity. As to conditions: T-RL, no IPTG.

Sequence “TTTTGTGTTGAAACAACCATAAAGTGATAACAACGAATCAATTAAAATCATAGGCTTAATCGAAAAACAACCATATCTTGATATCGCACAAAACAACCATAAGTTGATATTTTGGTGAAAAGGATATTCCAACCTTCATAGTTTAGTAAGAA (double strand) [Left end hyperactive 4672]” showed a binding signal of 1.54 fold vs WT.

“TTTTGTGTTGAAACAACCATAAAGTGATAACAACGAATCAATTAAAATCATAGGCTTAATCGAAAAACAACCATATCTTGATATCGCATAAAACAACCATAAGTTGATATTTTTGTGAATAGGATATTCCAACCTTCATAGTTTAGTAAGAA (double strand) [Left end hyperactive 4670]” registered a binding signal of 1.67 fold vs WT. The result for “TTTTGTGTTGAAACAACCATAAAGTGATATTTACGAATCAATTAAAATCATAGGCTTAATCGAAAAACAACCATATCTTGATATCGCATAAAACAACCATAAGTTGATATTTTGGTGAAAAGGATATTCCAACCTTCATAGTTTAGTAAGAA (double strand) [Left end hyperactive 4667]” reads 2.07 fold vs WT. In turn, “TTTTGTGTTGATGCAACCATAAAGTGATAACAACGAATCAATTAAAATCATAGGCTTAATCGAAAAACAACCATATCTTGATATCGCATAAAACAACCATAAGTTGATATTTTGGTGAAAAGGATATTCCAACCTTCATAGTTTAGTAAGAA (double strand) [Left end hyperactive 4671]” returned a binding signal of 1.55 fold vs WT.
